The text below walks through data of PMC1072803.

This data set concerns the target T1, CREB-HZ (CREB-H bZIP region) (Mus musculus, UniProt Q91XE9 206-318).
T1 sequence: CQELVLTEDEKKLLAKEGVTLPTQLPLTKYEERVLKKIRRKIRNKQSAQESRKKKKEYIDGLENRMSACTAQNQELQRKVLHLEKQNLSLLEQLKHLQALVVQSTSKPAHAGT
As to the kind of experiment: competition.

B1: box B, alcohol dehydrogenase-1 gene (dsDNA)
DNA 1: GATCTTGTACACGTAATCGTAGGATCC
DNA 2: GGATCCTACGATTACGTGTACAAGATC
For B1, the binding result is given as “binds”.
